For orientation: EC50 means the concentration at which the effect is half-maximal. In general, Kd refers to a measure of binding affinity in units of concentration. What is called koff is the first-order rate constant of dissociation. In general, kon refers to a measure of how fast the partners come together. The term IC50 denotes the concentration that inhibits the measured activity by half.

Test [1] has as its target T1, Human LAG-3 protein (Cat#LA3-5222, Acrobiosystems) (human, UniProt P18627 23-450).
T1 construct: Bought protein; also called recombinant human LAG-3; LAG3 recombinant protein
T1 sequence: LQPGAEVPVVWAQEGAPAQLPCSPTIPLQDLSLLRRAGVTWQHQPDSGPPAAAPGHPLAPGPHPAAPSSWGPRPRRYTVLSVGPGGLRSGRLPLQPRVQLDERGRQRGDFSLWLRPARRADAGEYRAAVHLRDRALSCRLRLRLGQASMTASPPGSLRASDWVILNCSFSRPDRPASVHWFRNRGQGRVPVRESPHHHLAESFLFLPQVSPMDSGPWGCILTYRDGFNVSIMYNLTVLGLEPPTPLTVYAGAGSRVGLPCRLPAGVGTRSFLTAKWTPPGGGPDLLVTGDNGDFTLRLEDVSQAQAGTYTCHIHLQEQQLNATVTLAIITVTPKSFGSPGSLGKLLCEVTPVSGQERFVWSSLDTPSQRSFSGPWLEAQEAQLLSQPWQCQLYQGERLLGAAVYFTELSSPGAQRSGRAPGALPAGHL
Description: phage ELISA on coated LAG3. (In general: ELISA stands for enzyme-linked immunosorbent assay.)

For test [2], the target named is T1, Human LAG-3 protein (Cat#LA3-5222, …). The test can be described thus: ELISA, human LAG-3 recombinant protein immobilized, serially diluted antibody, anti-human IgG-HRP, OD450-620.
Test [3] deals with T2, Mouse LAG-3 (Acrobiosystems) (mouse, UniProt Q61790 24-442, limits assumed).
T2 construct: Bought protein; also called mouse LAG-3 recombinant protein
T2 sequence (looked up): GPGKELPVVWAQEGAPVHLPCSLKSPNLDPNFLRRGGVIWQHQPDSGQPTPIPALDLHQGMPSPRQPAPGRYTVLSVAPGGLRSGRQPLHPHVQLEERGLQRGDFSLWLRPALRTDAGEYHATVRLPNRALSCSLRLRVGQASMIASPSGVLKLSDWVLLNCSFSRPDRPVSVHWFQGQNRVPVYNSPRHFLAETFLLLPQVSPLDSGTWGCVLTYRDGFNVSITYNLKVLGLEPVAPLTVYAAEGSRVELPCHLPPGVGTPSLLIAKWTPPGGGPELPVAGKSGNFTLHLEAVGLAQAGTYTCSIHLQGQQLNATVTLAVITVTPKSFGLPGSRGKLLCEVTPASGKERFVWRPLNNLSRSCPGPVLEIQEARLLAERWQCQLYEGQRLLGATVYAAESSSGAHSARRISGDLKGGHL
Description: ELISA, mouse LAG-3 recombinant protein immobilized.

The target in test [4] is T3, human CD4 recombinant protein (Sino Biological) (human, UniProt P01730 26-390, limits assumed).
T3 construct: Bought protein
Description: ELISA, human CD4 recombinant protein immobilized.

For test [5], the target named is T4, Recombinant LAG-3 domain 1-2 (Amino acid 1-262) fused to human IgG1 Fc domain (human, UniProt P18627 23-262).
T4 construct: also called domain 1-2 of human LAG-3; not shown: human IgG1 Fc domain
T4 sequence: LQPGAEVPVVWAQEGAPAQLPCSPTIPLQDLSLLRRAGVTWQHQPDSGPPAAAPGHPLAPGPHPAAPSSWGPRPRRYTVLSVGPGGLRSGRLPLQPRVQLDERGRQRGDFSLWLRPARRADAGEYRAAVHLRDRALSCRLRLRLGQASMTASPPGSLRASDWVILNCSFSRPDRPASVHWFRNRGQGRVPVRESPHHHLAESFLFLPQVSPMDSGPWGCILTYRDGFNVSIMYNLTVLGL
The test can be described thus: ELISA, human LAG-3 domain 1-2 Fc fusion immobilized, serially diluted antibody, anti-human F(ab')2-HRP, OD450-620.

In test [6] the target is T1, Human LAG-3 protein (Cat#LA3-5222, …). The test can be described thus: SPR Biacore T200, antibody captured on anti-human IgG (Fc), human LAG-3 injected 6.25-200 nM, 1:1 Langmuir fit. For orientation: SPR reads the build-up and loss of mass on a sensor chip optically.
Test [7] has the same target. The test can be described thus: ELISA blocking assay: human LAG-3 immobilized, antibody mixed with biotin labeled LSECtin, streptavidin-HRP, OD450-620.
The target of test [8] is cynomolgus monkey LAG-3 protein (Cat#LA3-C52A0, Acrobiosystems) (cynomolgus monkey). Description: BLI ForteBio Octet RED 96, biotin labeled antibody on streptavidin sensor, antigen 3.125-100 nM, 1:1 fit.
For test [9], the target named is T1, Human LAG-3 protein (Cat#LA3-5222, …). The test is described as above.
Test [10] concerns the target T5, recombinant rhesus monkey LAG-3 protein (Amino acids 1-450 of XM_001108923.3 fused to human IgG1 Fc domain) (rhesus monkey; human, UniProt P18627 23-450).
T5 construct: not shown: human IgG1 Fc domain
T5 chain: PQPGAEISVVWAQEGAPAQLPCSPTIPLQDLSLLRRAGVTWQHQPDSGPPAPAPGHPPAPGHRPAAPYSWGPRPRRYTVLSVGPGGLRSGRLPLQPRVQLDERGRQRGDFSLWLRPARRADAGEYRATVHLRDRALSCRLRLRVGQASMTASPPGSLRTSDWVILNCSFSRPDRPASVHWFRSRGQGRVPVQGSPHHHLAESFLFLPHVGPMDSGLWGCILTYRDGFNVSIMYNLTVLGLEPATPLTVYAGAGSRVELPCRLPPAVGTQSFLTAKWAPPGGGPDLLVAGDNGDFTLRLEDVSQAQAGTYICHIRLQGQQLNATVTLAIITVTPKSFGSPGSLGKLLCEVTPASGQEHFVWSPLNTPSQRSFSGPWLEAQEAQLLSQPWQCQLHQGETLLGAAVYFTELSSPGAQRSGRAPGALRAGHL
Described as above.

For test [11], the target named is T6, LAG-3 fusion protein comprising human LAG-3 extracellular domain fused to mouse Fc (SinoBiological, … (human; mouse, UniProt P18627 23-450).
T6 construct: Bought fusion protein; not shown: mouse Fc
T6 sequence: T1 sequence
The test can be described thus: flow cytometry blocking assay: antibody premixed with hLAG-3-mFc, binding of hLAG-3-mFc to MHC class II on Daudi cells read as MFI.

B1: clone 8# as single chain Fv displayed on phage (scFv)
scFv: QVQLQESGGGVVRPGGSLRLSCAASGFTFDDYGMSWVRQAPGKGLEWVSGINWSGGSTYYADSVKGRSTISRDNSKNTLYLQMNSLRAEDTAVYYCATGGYWGQGTLVTVSSSGGSTITSYNVYYTKLSSSGTSYELTQPPSVSVSPGQTASITCSGDKLGDKYTSWYQQKPGQSPLLVIYQSTKRPSGIPERFSGSNSGDTATLTISGTQPMDEADYYCQAWDSSTAVFGGGTKLTVLG
Take B1: the binding result in [1] is reported as “binds”.

B2: anti-LAG-3 antibody 2# (antibody, V domains shown)
VH: QVQLQESGGGVVRPGGSLRLSCAASGFTFDDYGMSWVRQAPGKGLEWVSGINWSGGSTYYADSVKGRSTISRDNSKNTLYLQMNSLRAEDTAVYYCATGGYWGQGTLVTVSS
VL: not shown
notes: elsewhere IgG4 is preferred; also called Clone 2#; clone #2
As for B2, the EC50 in test [2] is 0.105 nM; in test [5] it was 0.228 nM. The results for the binding result in test [3] and in [4] were “no binding (tested: about 10 nM)” and “no binding (tested: about 20 nM)”, respectively. In addition, the Kd turned out to be 0.348 nM in test [6], 1.27 nM in test [8], 0.13 nM in test [9] and 1.22 nM in [10]. For the same molecule, the koff in test [6] amounted to 0.00062 s⁻¹; in test [8], 0.00058 s⁻¹; in test [9], 3.65e-05 s⁻¹; in [10], 0.000676 s⁻¹. The kon in [6] is 1.78e+06 M⁻¹ s⁻¹; in test [8], 457000 M⁻¹ s⁻¹; in test [9], 280000 M⁻¹ s⁻¹; in test [10], 554000 M⁻¹ s⁻¹. The IC50 in test [7] turned out to be 6.48 nM; in test [11], 11.5 nM.

B3: anti-LAG-3 antibody 13# (antibody, human IgG4 S228P, lambda, V domains shown)
VH: B2 VH
VL: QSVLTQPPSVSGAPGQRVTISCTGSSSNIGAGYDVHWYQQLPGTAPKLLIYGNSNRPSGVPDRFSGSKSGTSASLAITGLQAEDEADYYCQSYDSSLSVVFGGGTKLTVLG
notes: The VH is the same as that of clone 8; also called Clone 13#; Clone 13
Regarding B3, the EC50 in [2] came out at 0.509 nM. In [3], the binding result is on record as “no binding (tested: about 10 nM)”. Besides, in test [4], the binding result was “no binding (tested: about 20 nM)”. The 50% effective concentration (EC50) in test [5] was 1.46 nM. In [6], this molecule had a Kd of 486 nM, a koff of 0.0448 s⁻¹ and a kon of 92200 M⁻¹ s⁻¹.

B4: anti-LAG-3 antibody 8# (antibody, human IgG4 S228P, lambda, V domains shown)
VH: B2 VH
VL: SYELTQPPSVSVSPGQTASITCSGDKLGDKYTSWYQQKPGQSPLLVIYQSTKRPSGIPERFSGSNSGDTATLTISGTQPMDEADYYCQAWDSSTAVFGGGTKLTVLG
notes: also called Clone 8#; Clone 8
For B4, the EC50 in test [2] came to 0.637 nM; in test [5], 1.99 nM. Further, the binding result in [3] is “no binding (tested: about 10 nM)”; in test [4], “no binding (tested: about 20 nM)”. In test [6], this molecule had a Kd of 2.08 nM. The molecule also came in with a koff in test [6] of 0.000298 s⁻¹. Further, the kon in test [6] was 143000 M⁻¹ s⁻¹. Also, the IC50 in test [11] came out at 31.5 nM.

B5: anti-LAG-3 antibody 6# (antibody, human IgG4 S228P, lambda, V domains shown)
VH: QVQLVQSGGGVVQPGRSLRLPCAASGFTFSSYGMHWVRQAPGKGLEWVAAISYDGSNKYYADSVKGRFTISRDNSKNTLYLQMNSLRAEDTAVYYCAREGSYYLEGIDYWGQGTLVTVSS
VL: QSVLTQPPSVSEAPRQRVTISCSGSSSNIGDNAVNWYQQLPGKAPTLLIYYDDLLPSGVPDRFSGSKSGTSASLAISGLQSEDEAEYYCAAWDDSLKGYVFGTGTKLTVLG
notes: also called Clone 6#; Clone 6
B5: the binding result in test [3] was “no binding (tested: about 10 nM)”. In [4], the binding result is reported as “no binding (tested: about 20 nM)”. Moreover, in [6], binding was characterised by a dissociation constant (Kd) of 38.4 nM, the koff was found to be 0.000943 s⁻¹ and the kon was 24600 M⁻¹ s⁻¹.

B6: clone 6# as single chain Fv displayed on phage (scFv)
scFv: QVQLVQSGGGVVQPGRSLRLPCAASGFTFSSYGMHWVRQAPGKGLEWVAAISYDGSNKYYADSVKGRFTISRDNSKNTLYLQMNSLRAEDTAVYYCAREGSYYLEGIDYWGQGTLVTVSSSGGSTITSYNVYYTKLSSSGTQSVLTQPPSVSEAPRQRVTISCSGSSSNIGDNAVNWYQQLPGKAPTLLIYYDDLLPSGVPDRFSGSKSGTSASLAISGLQSEDEAEYYCAAWDDSLKGYVFGTGTKLTVLG
Take B6: the binding result in test [1] is “binds”.

The values above are taken from US20190016800A1 (NANJING LEADS BIOLABS, published 2019).
